According to patent EP2239269B1, “Use of peptides derived from copolymer-1 as molecular weight markers” (YEDA RESEARCH AND DEVELOPMENT CO., LTD., priority 1998, dated 2013):

B1: TV-66: 66-mer sequence-defined polypeptide molecular weight marker of Ala, Glu, Tyr, Lys, molecular weight = 7040 daltons (peptide)
chain: AKKYAKKEKAYAKAKKAEAKAAKKAKAEAKKYAKAAKAEKKEYAAAEAKYKAEAAKAAAKEAAYEA
B2: TV-109: 109-mer sequence-defined polypeptide molecular weight marker, molecular weight = 11727 daltons (peptide)
chain: AKKYAKKAEKAYAKKAKAAKEKKAYAKKEAKAYKAAEAKKKAKAEAKKYAKEAAKAKKEAYKAEAKKYAKAAKAEKKEYAAAEAKKAEAAKAYKAEAAKAAAKEAAYEA
B3: TV-77: 77-mer sequence-defined polypeptide molecular weight marker of Ala, Glu, Tyr, Lys, molecular weight = 8259 daltons (peptide)
chain: AKKYAKKEKAYAKKAEKAAKKAEAKAYKAAEAKKKAKAEAKKYAKAAKAEKKEYAAAEAKYKAEAAKAAAKEAAYEA
B4: TV-86: 86-mer sequence-defined polypeptide molecular weight marker of Ala, Glu, Tyr, Lys, molecular weight = 9220 daltons (peptide)
chain: AKKYAKKEKAYAKKAEKAAKKAEAKAYKAAEAKKKAKAEAKKYAKAAKAEKKEYAAAEAKYKAEAAKKAYKAEAAKAAAKEAAYEA

Experiment: Stability of markers in solution at room temperature, followed by peak retention time on chromatography
Format: physicochemical
Details: average of the four analyses over 24 hours, room temperature
Experimental: Stability of markers in solution - TV-markers were chromatographed four times over a period of 24 hours. All markers were kept as solutions at room temperature and were analyzed at 8 hour intervals.

Compared with B1, B2 is lower in “Peak Retention Time, Average” value: 27.404 for the first, 24.842 for the second.

Going from B3 to B4, the “Peak Retention Time, Average” value falls from 26.746 to 26.129.

Same assay, conditions: solution at room temperature, 0.1 mg/ml; 1st of four analyses at 8 hour intervals over 24 hours

B1 and B2 are within 1.5-fold of each other in “Peak Retention Time” value: 27.400 min for the first, 24.783 min for the second.

B3 and B4 are within 1.5-fold of each other in “Peak Retention Time” value: 26.750 min for the first, 26.117 min for the second.

Same assay, conditions: solution at room temperature, 0.1 mg/ml; 2nd of four analyses at 8 hour intervals

B1 and B2 are within 1.5-fold of each other in “Peak Retention Time” value: 27.350 min for the first, 24.850 min for the second.

B3 and B4 are within 1.5-fold of each other in “Peak Retention Time” value: 26.700 min for the first, 26.100 min for the second.

Same assay, conditions: solution at room temperature, 0.1 mg/ml; 3rd of four analyses at 8 hour intervals

B1 and B2 are within 1.5-fold of each other in “Peak Retention Time” value: 27.433 min for the first, 24.883 min for the second.

B3 and B4 are within 1.5-fold of each other in “Peak Retention Time” value: 26.750 min for the first, 26.150 min for the second.

Same assay, conditions: solution at room temperature, 0.1 mg/ml; 4th of four analyses at 8 hour intervals

B1 and B2 are within 1.5-fold of each other in “Peak Retention Time” value: 27.433 min for the first, 24.850 min for the second.

B3 and B4 are within 1.5-fold of each other in “Peak Retention Time” value: 26.783 min for the first, 26.150 min for the second.

Experiment: Circular dichroism, molar ellipticity (Jobin-Yvon CD spectrophotometer)
Format: physicochemical
Set-up: unit not given here
Details: not given
From the text: Circular dichroism - Structural similarity between the molecular weight markers and glatiramer acetate is a pre-requisite for an appropriate calibration of a molecular sizing column. Differences in polypeptide structure may result in different hydrodynamic size and consequently in altered retention time in the chromatographic system. The ellipticity, determined by circular dichroism, serves as a measure of the secondary structure of a polypeptide. When the ellipticity of the molecular weight markers and glatiramer acetate is similar, the structures of the two will be similar.
The molar ellipticity of the polypeptides was determined on a Jobin-Yvon CD spectrophotometer. […] Note that while the exact molecular weight for the TV-markers was plotted, the averace-by-number molecular weight for the glatiramer acetate was used in the plot.

First: B1
Second: B2
The “M-ellip. (210nm)” value of the first is higher: -3.5172 for the first, -6.818 for the second.

First: B3
Second: B4
The “M-ellip. (210nm)” value of the first is higher: -4.8365 for the first, -5.4546 for the second.

Experiment: Stability of marker solutions stored frozen at -10 to -20°C, followed by retention time at column calibration
Format: physicochemical
Set-up: unit not given here
Details: stored at -10° to -20°C; date of calibration 04-step-97, interval 105 days
Experimental: In addition, solutions of the markers were stored for up to 3 ½ months under various storage conditions (2-8 °C, -10 to -20°C, with/without azide).

First: B1
Second: B2
The RT of the first is higher: 26.300 for the first, 23.583 for the second.

First: B3
Second: B4
The RT of the first is higher: 25.550 for the first, 24.950 for the second.

Same assay, conditions: stored at -10° to -20°C; date of calibration 09-Jul-97, interval 48 days

Compared with B1, B2 is lower in RT: 26.317 for the first, 23.650 for the second.

Going from B3 to B4, the RT falls from 25.617 to 25.017.

Same assay, conditions: stored at -10° to -20°C; date of calibration 22-May-97, interval -

Going from B1 to B2, the RT falls from 26.233 to 23.500.

First: B3
Second: B4
The RT of the first is higher: 25.467 for the first, 24.883 for the second.
